The source of these data is US20180161428A1 (HARPOON THERAPEUTICS, published 2018).

Assay [1] addresses T1, TriTAC CD3 high aff. - C324.
T1 construct: Trispecific single chain: anti-PSMA sdAb, anti-HSA sdAb, anti-CD3 scFv, 6xHis (the tag is part of the entry); also called PSMA TriTAC CD3 high aff; C00324
The assay is described as follows: BLI (Octet), cynomolgus albumin (CSA). Background: In BLI a coated tip is dipped into the sample, and binding shifts an interference pattern.

Assay [2] has as its target T2, Tool TriTAC high aff. - C236.
T2 construct: Trispecific single chain: anti-PSMA sdAb, anti-HSA sdAb, anti-CD3 scFv, 6xHis (the tag is part of the entry); also called Tool PSMA TriTAC; C00236
Put plainly: BLI (Octet), cynomolgus albumin (CSA).

Assay [3] has as its target T3, PSMA TriTAC (HDS)-C363.
T3 construct: Trispecific single chain: anti-PSMA sdAb, anti-HSA sdAb, anti-CD3 scFv, 6xHis (the tag is part of the entry); also called PSMA HDS TriTAC C363; C00363
Put plainly: BLI (Octet), cynomolgus albumin (CSA).

Assay [4] has as its target T4, PSMA-TriTAC (p8)-C362.
T4 construct: Trispecific single chain: anti-PSMA sdAb, anti-HSA sdAb, anti-CD3 scFv, 6xHis (the tag is part of the entry); also called PSMA p8 TriTAC C362; C00362
The assay is described as follows: BLI (Octet), cynomolgus albumin (CSA).

Assay [5] deals with T5, PSMA TriTAC (HTS)-C364.
T5 construct: Trispecific single chain: anti-PSMA sdAb, anti-HSA sdAb, anti-CD3 scFv, 6xHis (the tag is part of the entry); also called PSMA HTS TriTAC C364; C00364
Put plainly: BLI (Octet), cynomolgus albumin (CSA).

The target of assay [6] is T3, PSMA TriTAC (HDS)-C363. Put plainly: BLI (Octet), cynomolgus PSMA.
In assay [7] the target is T5, PSMA TriTAC (HTS)-C364. Put plainly: BLI (Octet), cynomolgus PSMA.
In assay [8] the target is T1, TriTAC CD3 high aff. - C324. Put plainly: BLI (Octet), cynomolgus CD3.
Assay [9] deals with T2, Tool TriTAC high aff. - C236. The assay is described as follows: BLI (Octet), cynomolgus CD3.
In assay [10] the target is T3, PSMA TriTAC (HDS)-C363. The assay is described as follows: BLI (Octet), cynomolgus CD3.
Assay [11] addresses T4, PSMA-TriTAC (p8)-C362. The assay is described as follows: BLI (Octet), cynomolgus CD3.
Assay [12] concerns the target T5, PSMA TriTAC (HTS)-C364. Put plainly: BLI (Octet), cynomolgus CD3.
The target of assay [13] is T1, TriTAC CD3 high aff. - C324. Put plainly: BLI (Octet), human CD3-Flag-Fc on anti-human IgG Fc biosensors.
In assay [14] the target is T3, PSMA TriTAC (HDS)-C363. Described as above.
Assay [15] concerns the target T4, PSMA-TriTAC (p8)-C362. Described as above.
Assay [16] deals with T5, PSMA TriTAC (HTS)-C364. The assay is described as above.
The target in the next assay is T6, hFc · flag · hPSMA (human, UniProt Q04609 44-750).
T6 construct: The order of the parts follows the printed label; also called human PSMA; h PSMA-Fc; not shown: human Fc (hFc); flag tag
The assay is described as follows: BLI (OCTET), expression supernatants, hFc.flag.hPSMA. The text has this:
Supernatants were used to estimate Kd, kon, and koff (or kdis) to human and cynomolgus PSMA using the OCTET® system. […] The parental sdAb is listed as Anti-PSMA wt sdAb.6his in Table 1.

T4 sequence (chain, as listed by the source): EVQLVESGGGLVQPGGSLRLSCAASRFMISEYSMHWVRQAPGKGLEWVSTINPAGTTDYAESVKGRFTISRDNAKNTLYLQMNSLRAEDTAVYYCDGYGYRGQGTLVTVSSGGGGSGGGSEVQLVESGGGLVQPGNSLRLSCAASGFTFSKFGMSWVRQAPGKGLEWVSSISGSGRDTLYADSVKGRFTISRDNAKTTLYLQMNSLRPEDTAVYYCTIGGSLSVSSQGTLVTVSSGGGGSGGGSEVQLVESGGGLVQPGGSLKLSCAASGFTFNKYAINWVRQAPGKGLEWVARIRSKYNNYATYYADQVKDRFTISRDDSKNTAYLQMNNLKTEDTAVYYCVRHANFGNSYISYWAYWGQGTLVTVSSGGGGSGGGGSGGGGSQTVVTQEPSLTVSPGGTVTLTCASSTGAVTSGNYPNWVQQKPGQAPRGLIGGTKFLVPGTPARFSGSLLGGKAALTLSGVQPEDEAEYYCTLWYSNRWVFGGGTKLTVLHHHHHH
T6 sequence (Q04609 44-750 limits assumed): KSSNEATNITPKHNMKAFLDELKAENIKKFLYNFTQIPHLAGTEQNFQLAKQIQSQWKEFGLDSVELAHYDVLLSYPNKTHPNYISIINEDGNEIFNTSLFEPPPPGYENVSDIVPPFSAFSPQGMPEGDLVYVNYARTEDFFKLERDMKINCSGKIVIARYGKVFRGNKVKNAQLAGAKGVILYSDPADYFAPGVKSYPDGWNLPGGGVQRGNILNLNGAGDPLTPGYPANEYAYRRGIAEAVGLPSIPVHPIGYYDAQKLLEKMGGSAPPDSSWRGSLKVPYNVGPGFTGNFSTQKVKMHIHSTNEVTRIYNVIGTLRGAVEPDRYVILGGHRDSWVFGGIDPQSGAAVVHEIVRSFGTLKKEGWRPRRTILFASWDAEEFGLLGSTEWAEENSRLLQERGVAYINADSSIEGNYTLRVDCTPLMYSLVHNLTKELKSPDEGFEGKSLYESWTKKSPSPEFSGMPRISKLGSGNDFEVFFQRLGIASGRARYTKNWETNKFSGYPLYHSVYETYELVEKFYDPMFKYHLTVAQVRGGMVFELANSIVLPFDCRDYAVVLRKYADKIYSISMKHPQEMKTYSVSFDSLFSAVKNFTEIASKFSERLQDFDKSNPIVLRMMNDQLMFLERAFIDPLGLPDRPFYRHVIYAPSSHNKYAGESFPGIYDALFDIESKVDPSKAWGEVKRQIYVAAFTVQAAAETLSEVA

B1: CSA (other, cynomolgus, UniProt A2V9Z4 25-608, looked up)
chain: DTHKSEVAHRFKDLGEEHFKGLVLVAFSQYLQQCPFEEHVKLVNEVTEFAKTCVADESAENCDKSLHTLFGDKLCTVATLRETYGEMADCCAKQEPERNECFLQHKDDNPNLPPLVRPEVDVMCTAFHDNEATFLKKYLYEVARRHPYFYAPELLFFAARYKAAFAECCQAADKAACLLPKLDELRDEGKASSAKQRLKCASLQKFGDRAFKAWAVARLSQKFPKAEFAEVSKLVTDLTKVHTECCHGDLLECADDRADLAKYMCENQDSISSKLKECCDKPLLEKSHCLAEVENDEMPADLPSLAADYVESKDVCKNYAEAKDVFLGMFLYEYARRHPDYSVMLLLRLAKAYEATLEKCCAAADPHECYAKVFDEFQPLVEEPQNLVKQNCELFEQLGEYKFQNALLVRYTKKVPQVSTPTLVEVSRNLGKVGAKCCKLPEAKRMPCAEDYLSVVLNRLCVLHEKTPVSEKVTKCCTESLVNRRPCFSALELDEAYVPKAFNAETFTFHADMCTLSEKEKQVKKQTALVELVKHKPKATKEQLKGVMDNFAAFVEKCCKADDKEACFAEEGPKFVAASQAALA
notes: also called cynomolgus serum albumin
Regarding B1, the dissociation constant Kd – broadly, the constant that tells how readily two partners part at equilibrium – in assay [1] stood at 9.7 nM; in [2], 25.4 nM; with PSMA TriTAC (HDS)-C363 [3], 8.4 nM; in the assay with PSMA-TriTAC (p8)-C362 [4], 6.6 nM; with PSMA TriTAC (HTS)-C364 [5], 8.6 nM.

B2: cynomolgus PSMA (other)
chain: KSSSEATNITPKHNMKAFLDELKAENIKKFLHNFTQIPHLAGTEQNFQLAKQIQSQWKEFGLDSVELTHYDVLLSYPNKTHPNYISIINEDGNEIFNTSLFEPPPAGYENVSDIVPPFSAFSPQGMPEGDLVYVNYARTEDFFKLERDMKINCSGKIVIARYGKVFRGNKVKNAQLAGATGVILYSDPADYFAPGVKSYPDGWNLPGGGVQRGNILNLNGAGDPLTPGYPANEYAYRRGIAEAVGLPSIPVHPIGYYDAQKLLEKMGGSASPDSSWRGSLKVPYNVGPGFTGNFSTQKVKMHIHSTSEVTRIYNVIGTLRGAVEPDRYVILGGHRDSWVFGGIDPQSGAAVVHEIVRSFGTLKKEGWRPRRTILFASWDAEEFGLLGSTEWAEENSRLLQERGVAYINADSSIEGNYTLRVDCTPLMYSLVYNLTKELESPDEGFEGKSLYESWTKKSPSPEFSGMPRISKLGSGNDFEVFFQRLGIASGRARYTKNWETNKFSSYPLYHSVYETYELVEKFYDPMFKYHLTVAQVRGGMVFELANSVVLPFDCRDYAVVLRKYADKIYNISMKHPQEMKTYSVSFDSLFSAVKNFTEIASKFSERLRDFDKSNPILLRMMNDQLMFLERAFIDPLGLPDRPFYRHVIYAPSSHNKYAGESFPGIYDALFDIESKVDPSQAWGEVKRQISIATFTVQAAAETLSEVA
notes: the methods describe only the human PSMA-Fc format; also called cyno PSMA
For B2, the Kd was found to be 540 nM with PSMA TriTAC (HDS)-C363 [6] and 663 nM with PSMA TriTAC (HTS)-C364 [7].

B3: cynomolgus CD3 (receptor, UniProt Q95LI5 22-117, looked up)
chain: QDGNEEMGSITQTPYQVSISGTTVILTCSQHLGSEAQWQHNGKNKEDSGDRLFLPEFSEMEQSGYYVCYPRGSNPEDASHHLYLKARVCENCMEMD
notes: The methods describe only the human CD3-Flag-Fc format; also called cyno CD3e
Consider B3, for which the dissociation constant (Kd) in assay [8] stood at 5.8 nM; in assay [9] it was 4.7 nM; in the assay with PSMA TriTAC (HDS)-C363 [10], 5.2 nM; with PSMA-TriTAC (p8)-C362 [11], 4.3 nM; with PSMA TriTAC (HTS)-C364 [12], 3.8 nM.

B4: human CD3-Flag-Fc protein (Fc fusion, UniProt P07766 23-126, looked up)
chain: DGNEEMGGITQTPYKVSISGTTVILTCPQYPGSEILWQHNDKNIGGDEDDKNIGSDEDHLSLKEFSELEQSGYYVCYPRGSKPEDANFYLYLRARVCENCMEMD
notes: also called CD3e; not shown: Flag tag
For the molecule B4, the Kd in assay [13] was 7.4 nM; with PSMA TriTAC (HDS)-C363 [14] it was 8 nM; with PSMA-TriTAC (p8)-C362 [15], 8.3 nM; with PSMA TriTAC (HTS)-C364 [16], 7.7 nM.

B5: Anti-PSMA wt sdAb.6his (VHH)
VHH: EVQLVESGGGLVQPGGSLTLSCAASRFMISEYSMHWVRQAPGKGLEWVSTINPAGTTDYAESVKGRFTISRDNAKNTLYLQMNSLKPEDTAVYYCDGYGYRGQGTQVTVSS
notes: Tested as supernatant of Expi293 cells; also called parental sdAb; parental anti-PSMA single domain antibody
Consider B5, for which, in the assay with hFc · flag · hPSMA, the equilibrium dissociation constant (Kd) is 15 nM, the off-rate constant (koff) (commonly a measure of how fast the partners let go of each other) was found to be 0.0132 s⁻¹ and the kon (usually the second-order rate constant of association) was 877000 M⁻¹ s⁻¹.

B6: anti-PSMA T56Q sdAb.6his (VHH)
VHH: EVQLVESGGGLVQPGGSLTLSCAASRFMISEYSMHWVRQAPGKGLEWVSTINPAGQTDYAESVKGRFTISRDNAKNTLYLQMNSLKPEDTAVYYCDGYGYRGQGTQVTVSS
In the assay with hFc · flag · hPSMA, B6 had a Kd of 5.6 nM, a koff of 0.00461 s⁻¹ and a kon of 822000 M⁻¹ s⁻¹.

B7: anti-PSMA G55K sdAb.6his (VHH)
VHH: EVQLVESGGGLVQPGGSLTLSCAASRFMISEYSMHWVRQAPGKGLEWVSTINPAKTTDYAESVKGRFTISRDNAKNTLYLQMNSLKPEDTAVYYCDGYGYRGQGTQVTVSS
In the assay with hFc · flag · hPSMA, B7 registered a Kd of 4.5 nM, an off-rate constant (koff) of 0.00248 s⁻¹ and an on-rate (kon) of 556000 M⁻¹ s⁻¹.

B8: anti-PSMA S33H G97SsdAb.6his (VHH)
VHH: EVQLVESGGGLVQPGGSLTLSCAASRFMISEYHMHWVRQAPGKGLEWVSTINPAGTTDYAESVKGRFTISRDNAKNTLYLQMNSLKPEDTAVYYCDSYGYRGQGTQVTVSS
In the case of B8, in the assay with hFc · flag · hPSMA, binding was put at a Kd of 0.21 nM, the off-rate (koff) was found to be 0.000197 s⁻¹ and the kon stood at 936000 M⁻¹ s⁻¹.

B9: anti-PSMA S33H T50D G97SsdAb.6his (VHH)
VHH: EVQLVESGGGLVQPGGSLTLSCAASRFMISEYHMHWVRQAPGKGLEWVSDINPAGTTDYAESVKGRFTISRDNAKNTLYLQMNSLKPEDTAVYYCDSYGYRGQGTQVTVSS
In the assay with hFc · flag · hPSMA, B9 came in with an equilibrium dissociation constant (Kd) of 6.7 nM, a koff of 0.00538 s⁻¹ and a kon of 800000 M⁻¹ s⁻¹.

B10: anti-PSMA E31P sdAb.6his (VHH)
VHH: EVQLVESGGGLVQPGGSLTLSCAASRFMISPYSMHWVRQAPGKGLEWVSTINPAGTTDYAESVKGRFTISRDNAKNTLYLQMNSLKPEDTAVYYCDGYGYRGQGTQVTVSS
With B10, in the assay with hFc · flag · hPSMA, the dissociation constant Kd was 9.5 nM, the dissociation rate constant (koff) is 0.00366 s⁻¹ and the kon came to 383000 M⁻¹ s⁻¹.
